Results as given in patent publication US20050209147A1 (Stanford University, published 2005).

Molecular target: Rho-kinase (ROCK), endogenous in Swiss 3T3 mouse fibroblasts (mouse)
Test: cell-based or functional assay

RQIKIWFQNRRMKWKKGIVFSKDQFPEVYVPTVFE [P1-RhoA 23-40 fusion domain (Penetratin-1 fused through a glycine to human RhoA amino acids 23-40)]
dose at which inhibition of LPA-induced stress fibers becomes significant: 10 µM

RQIKIWFQNRRMKWKKGPDTDVILMCFSIDSPDSL [P1-RhoA 75-92 fusion domain (Penetratin-1 fused through a glycine to human RhoA amino acids 75-92)]
dose at which inhibition of LPA-induced stress fibers becomes significant: 10 µM
